Reference: patent publication US20250304677A1 (VIB VZW, published 2025)
One block for each binder: values may come before it.

Key:
[1] = biological target: T1, human folate receptor alpha (hFRα), recombinant protein (human, UniProt P15328 25-233); test: competition AlphaLISA against 2MFR67-Flag3-His6 on human FRα
T1 construct: Bought recombinant proteins (His-tagged, or biotinylated via Avi-tag, e.g. AcroBiosystems FO1-H82E2, F01-H52H1); also called hFOLR1; huFOLR1
Description: Secondly, the variants were analysed for the capacity to compete with binding of family 3 VHH 2MFR67 to human FRα in a competition AlphaLISA, which is a homogeneous assay without wash steps. In here, human FRα biotinylated through an Avi-tag ^{∘}FO1-H82E2, AcroBiosystems) is captured on streptavidin coated Alpha Donor beads ^{∘}Perkin Elmer, Cat nr. 6760002), while the 2MFR67 is captured on anti-Flag antibody AlphaLISA acceptor beads ^{∘}Perkin Elmer, Cat nr. AL112C). Binding of 2MFR67 to the FRα leads to an energy transfer from one bead to the other, ultimately producing a fluorescent signal. To each well of white low binding 384-well microtitre plates ^{∘}F-bottom, Greiner Cat nr 781904), 5 μl of serial-diluted VHHs are mixed with 5 μl of 2.5 nM monovalent 2MFR67-Flag3-His6 and 5 μl of 15 nM biotinylated human FRα protein. After an incubation for 1 hour at room temperature, streptavidin coated Alpha Donor beads and anti-Flag AlphaLISA acceptor beads were added to a final concentration of 20 μg/mL each in a final volume of 25 μl for an incubation of 1 hour at room temperature in the dark. Interaction between beads was assessed after illumination at 680 nm and reading at 615 nm of on an Ensight instrument. Curve fitting is done in Graphpad Prism 9.0 using 4PL non-linear regression analysis.

[2] = biological target: T2, mouse folate receptor alpha (mFRα), recombinant protein (mouse, UniProt P35846 25-232); test: BLI, Avi-biotinylated FRα on streptavidin biosensors, VHH 100 nM
T2 construct: Bought recombinant proteins (e.g. biotinylated, Acro Biosystems FO1-M82E9); also called mFOLR1; Ms FOLR1
T2 sequence (P35846 25-232 limits assumed): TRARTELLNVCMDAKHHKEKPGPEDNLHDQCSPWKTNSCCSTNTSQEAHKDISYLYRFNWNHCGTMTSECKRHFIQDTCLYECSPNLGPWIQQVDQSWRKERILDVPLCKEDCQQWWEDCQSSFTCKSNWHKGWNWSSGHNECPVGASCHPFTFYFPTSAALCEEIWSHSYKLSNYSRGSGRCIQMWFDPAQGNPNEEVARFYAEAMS
Description: (§1) The binding of humanized variants of 2HFO42 was assessed by kinetic binding analysis to mouse and human FRα protein, biotinylated via an Avi-tag, captured on streptavidin biosensors by biolayer interferometry ^{∘}BLI), essentially as described earlier. VHHs were analysed at 100 nM concentration, and off-rates were determined using fitting of 1:1 langmurian interaction. Dissociation constants were compared to 2HFO42^{∘}Q1E, Q5V, Q108L) ^{∘}P101500004) and 2MFR67 ^{∘}Q1E, Q5V, Q108L) ^{∘}P0150000), respectively.

[3] = biological target: T1, human folate receptor alpha (hFRα), …; test: as above
Description: as §1

[4] = biological target: T2, mouse folate receptor alpha (mFRα), …; test: ELISA on mouse FRα, anti-VHH detection
Outline: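 Dose-dependent binding of VHH variants to mouse folate receptor alpha was measured by ELISA with anti-VHH detection. EC50 was read off the dose-response curve.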

[5] = biological target: T2, mouse folate receptor alpha (mFRα), …; test: BLI, VHH captured by anti-FLAG antibody on mouse Fc biosensors
Outline: (§2)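 On mouse Fc biosensors, an anti-FLAG tag antibody captured the VHHs, which were then tested for binding to folate receptor alpha from rhesus monkey, mouse and human by biolayer interferometry. The association rate (kon), dissociation rate (koff) and KD came from a 1:1 binding model.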

[6] = biological target: T3, rhesus monkey folate receptor alpha, recombinant (rhesus monkey, UniProt F7BP60 25-233); test: as above
T3 construct: also called rhFolR1; rhesus macaque FRα
T3 sequence (F7BP60 entry or part of it): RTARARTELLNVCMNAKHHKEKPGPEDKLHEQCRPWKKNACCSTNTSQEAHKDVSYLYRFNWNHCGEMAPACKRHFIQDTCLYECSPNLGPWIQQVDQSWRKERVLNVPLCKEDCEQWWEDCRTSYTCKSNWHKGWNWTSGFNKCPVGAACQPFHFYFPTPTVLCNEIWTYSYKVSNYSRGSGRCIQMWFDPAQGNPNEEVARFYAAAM
Outline: as §2

[7] = biological target: T1, human folate receptor alpha (hFRα), …; test: as above
Outline: as §2

[8] = biological target: T2, mouse folate receptor alpha (mFRα), …; test: BLI, purified VHH
Outline: (§3)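 Affinity-optimised VHH variants were produced as flag3-His6-tagged proteins in TG-1 E. coli at 0.5 L scale. They were purified from the periplasmic fraction on Ni Sepharose FastFlow columns, desalted, and checked for purity by SDS-PAGE. Off-rates to human, mouse and cynomolgus folate receptor alpha were then determined by biolayer interferometry.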

[9] = biological target: T1, human folate receptor alpha (hFRα), …; test: BLI, purified VHH
Outline: as §3

[10] = biological target: T4, cynomolgus folate receptor alpha, recombinant (cynomolgus, UniProt A0A2K5U044 25-233); test: BLI, purified VHH
T4 construct: also called cyFOLR1; cynomolgus FRα
T4 sequence (A0A2K5U044 entry or part of it): as the sequence (F7BP60 entry or part of it) above
Outline: as §3

[11] = biological target: T5, human folate receptor alpha expressed on cells (transfected HEK293T, HeLa, MCF7, MDA-MB-231) (human, UniProt P15328 25-234); test: flow cytometry on HeLa cells, anti-Flag detection
T5 construct: HEK293T transiently transfected with human FOLR1; also called native human FRα; cell-expressed human FOLR1
T5 sequence (P15328 25-234 limits assumed): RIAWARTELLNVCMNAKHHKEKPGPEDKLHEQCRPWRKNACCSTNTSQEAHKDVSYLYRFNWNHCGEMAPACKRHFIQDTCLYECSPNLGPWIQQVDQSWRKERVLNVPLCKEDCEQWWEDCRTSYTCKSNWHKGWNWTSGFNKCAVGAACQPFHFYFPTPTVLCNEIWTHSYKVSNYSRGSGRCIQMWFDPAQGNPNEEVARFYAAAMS
Description: EC₅₀ values are found in Table 9. Detection of VHH cell binding was done through anti-Flag M2 mIgG1 followed by anti-mFc-PE in flow cytometry. Results are depicted as mean fluorescence intensity ^{∘}MFI).
Off-rates of purified variants were determined to human, mouse, and cynomolgus FRα in BLI. In addition, binding of the affinity optimised variants to cell-expressed human FRα on HeLa cells was determined by flow cytometry ^{∘}FIG. 10 B).

[12] = biological target: T2, mouse folate receptor alpha (mFRα), …; test: BLI tandem binning on mouse FRα; competitor (1st association) 3MFR60
Excerpt: (§4) VHHs that share high sequence identity in the CDR3 region, a VHH family, are derived from the same B-cell lineage and diverged from each other due to somatic hypermutation or affinity maturation. Typically, VHHs from the same family recognize the same epitope on the target, but may differ in other characteristics ^{∘}De Genst et al 2006 PNAS 103:4586-4591; De Gents et al 2005 J Biol Chem 280:14114-14121). To study whether the VHHs from the different families bound different epitopes, epitope binning was performed using a tandem binding approach in BLI. One VHH from each family was allowed to bind to mouse FRα on the biosensor, followed by binding of the second VHH ^{∘}Table 4).
(§5) Competition between VHHs from different complementarity determining region ^{∘}CDR) 3 families was assessed in a tandem binding assay using biolayer interferometry ^{∘}BLI). Streptavidin biosensors were loaded with biotinylated mouse FRα ^{∘}Acro Biosystems, Cat.nr. FO1-M82E9), followed by binding of anti-FRα VHHs ^{∘}VHH in first association). The biosensors were then transferred to a solution containing a second VHH mixed 1:1 with the first VHH ^{∘}VHH in second association). Using the FortéBio Data Analysis Software the absolute additional binding signal for the second association on top of the first association was calculated. The data were normalized per VHH in first association using the following formula: ^{∘}signal-self)/^{∘}maximum-self) with self being the value of the VHH in first association in combination with the same VHH in second association.

[13] = biological target: T2, mouse folate receptor alpha (mFRα), …; test: BLI tandem binning on mouse FRα; competitor (1st association) 2MFR32
Excerpt: as §4, §5

[14] = biological target: T2, mouse folate receptor alpha (mFRα), …; test: BLI tandem binning on mouse FRα; competitor (1st association) 2HFO42
Excerpt: as §4, §5

[15] = biological target: T2, mouse folate receptor alpha (mFRα), …; test: BLI tandem binning on mouse FRα; competitor (1st association) 2HFO19
Excerpt: as §4, §5

T1 sequence (P15328 25-233 limits assumed): as the sequence (F7BP60 entry or part of it) above, with T2I, R4W, K37R, P146A, Y171H counted along it

B1: P01500003: 2HF019(Q1E, Q5V, Q108L)-HIS6 (VHH)
VHH: EVQLVESGGGLVQPGGSLRVSCAASGFPFSTVYMSWVRQAPGKGLEWVSGINNDGGVIDYADSVKGRFTISRDNAKNTLYLQLNSLKPEDTALYFCARGRSFVATLSSSLRGQGTLVTVSS
notes: Entry includes the tag; also called 2HFO19 (P01500003); Nb19
IC50 [1]: 7.55 nM
koff [2]: 0.00052 s⁻¹
koff [3]: 0.00499 s⁻¹

B2: P01500002 = h2 variant 2HFO42: 2HF042(Q1E, Q5V, A14P, V40A, L79Y, K83R, K105Q, Q108L)-HIS6 (VHH)
VHH: EVQLVESGGGLVQPGGSLRLSCAASGSGFSGMIMGWYRQAPGKQRELVATVTSHGTTNYADSVKGRFTISRDNAKNTVYLQMNSLRPEDTAVYYCNAHFPGIYWGQGTLVTVSS
notes: Entry includes the tag
IC50 [1]: 43.7 nM
EC50 (read off the curve) [4]: ~5 nM
koff [2]: 0.00307 s⁻¹
koff [3]: 0.0132 s⁻¹

Other lines, results leading:

IC50 [1]: 39 nM
EC50 (read off the curve) [4]: ~4 nM
koff [2]: 0.00193 s⁻¹
koff [3]: 0.0102 s⁻¹
B3: P01500004: 2HF042(Q1E, Q5V, Q108L)-HIS6 (VHH)
VHH: EVQLVESGGGLVQAGGSLRLSCAASGSGFSGMIMGWYRQVPGKQRELVATVTSHGTTNYADSVKGRFTISRDNAKNTVLLQMNSLKPEDTAVYYCNAHFPGIYWGKGTLVTVSS
notes: Entry includes the tag; also called 2HFO42 (P01500004); Nb42

Kd [5]: 2.52 nM
koff [5]: 0.000571 s⁻¹
kon [5]: 227000 M⁻¹ s⁻¹
Kd [6]: 13.8 nM
koff [6]: 0.00434 s⁻¹
kon [6]: 315000 M⁻¹ s⁻¹
Kd [7]: 8.78 nM
koff [7]: 0.0031 s⁻¹
kon [7]: 353000 M⁻¹ s⁻¹
koff [8]: 0.000447 s⁻¹
koff [9]: 0.00282 s⁻¹
koff [10]: 0.000454 s⁻¹
EC50 [11]: 5.6 nM
MFI top [11]: 54900 MFI
koff [2]: 0.00042 s⁻¹
koff [3]: 0.00304 s⁻¹
B4: P01500008: 2MFR67(Q1E, Q5V, Q108L)-FLAG3-HIS6 (VHH)
VHH: EVQLVESGGGLVQAGGSLRLSCAASGSGFSGMIMGWYRQAPGKQRELVATVTSHGTTNYADSVKGRFTISREDSKNTVLLQMNSLKPEDTAVYYCNAHFPGIYWGKGTLVTVSS
notes: Entry includes the tags; also called 2MFR67-Flag3-His6

normalized additional binding in 2nd association [12]: 100%
normalized additional binding in 2nd association [13]: 0%
normalized additional binding in 2nd association [14]: 100%
normalized additional binding in 2nd association [15]: 100%
B5: VHH 2MFR32 (VHH)
VHH: QVQLQESGGGLVQAGGSLRVSCAASGFPFSTVYMSWVRQAPGKGLEWVSGINSNGGVIDYADSVKGRFTISRDNANNTLYLQLNSLKPEDTALYFCAKGRAFVATMPSSLRGQGTQVTVSS
notes: also called 2MF832
